Measurements reported in paper PMC10279719 (2023).

T1: PEAK2^IDR1 phosphorylated by Src (human, UniProt Q86YV5 802-1406, treated with Src kinase in vitro, sites not stated; phosphorylated at the tandem site 14-3-3 motif (RAA(pS)SP) as purified; biotin (EZ-Link NHS-PEG4-Biotin))
T1 chain: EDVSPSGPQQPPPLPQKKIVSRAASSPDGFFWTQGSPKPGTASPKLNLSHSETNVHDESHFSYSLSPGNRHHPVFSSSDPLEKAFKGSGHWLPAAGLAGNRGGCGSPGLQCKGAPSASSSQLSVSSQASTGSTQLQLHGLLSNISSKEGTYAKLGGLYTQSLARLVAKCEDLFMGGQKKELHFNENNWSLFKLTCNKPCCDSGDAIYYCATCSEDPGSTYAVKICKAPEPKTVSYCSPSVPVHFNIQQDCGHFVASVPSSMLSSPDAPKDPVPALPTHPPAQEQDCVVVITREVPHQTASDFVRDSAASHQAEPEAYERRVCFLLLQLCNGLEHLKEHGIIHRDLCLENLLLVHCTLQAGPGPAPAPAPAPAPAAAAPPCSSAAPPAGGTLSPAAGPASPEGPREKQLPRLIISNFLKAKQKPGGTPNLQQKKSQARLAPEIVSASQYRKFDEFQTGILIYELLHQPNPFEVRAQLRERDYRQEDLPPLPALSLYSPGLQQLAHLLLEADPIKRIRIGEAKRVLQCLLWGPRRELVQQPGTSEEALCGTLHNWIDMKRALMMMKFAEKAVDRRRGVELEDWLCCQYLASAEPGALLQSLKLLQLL

T2: PEAK1^IDR1 phosphorylated by Src (human, UniProt Q9H792 1082-1746, phosphotyrosine at 1107 (by Src in vitro, MS/MS); biotin (EZ-Link NHS-PEG4-Biotin))
T2 chain: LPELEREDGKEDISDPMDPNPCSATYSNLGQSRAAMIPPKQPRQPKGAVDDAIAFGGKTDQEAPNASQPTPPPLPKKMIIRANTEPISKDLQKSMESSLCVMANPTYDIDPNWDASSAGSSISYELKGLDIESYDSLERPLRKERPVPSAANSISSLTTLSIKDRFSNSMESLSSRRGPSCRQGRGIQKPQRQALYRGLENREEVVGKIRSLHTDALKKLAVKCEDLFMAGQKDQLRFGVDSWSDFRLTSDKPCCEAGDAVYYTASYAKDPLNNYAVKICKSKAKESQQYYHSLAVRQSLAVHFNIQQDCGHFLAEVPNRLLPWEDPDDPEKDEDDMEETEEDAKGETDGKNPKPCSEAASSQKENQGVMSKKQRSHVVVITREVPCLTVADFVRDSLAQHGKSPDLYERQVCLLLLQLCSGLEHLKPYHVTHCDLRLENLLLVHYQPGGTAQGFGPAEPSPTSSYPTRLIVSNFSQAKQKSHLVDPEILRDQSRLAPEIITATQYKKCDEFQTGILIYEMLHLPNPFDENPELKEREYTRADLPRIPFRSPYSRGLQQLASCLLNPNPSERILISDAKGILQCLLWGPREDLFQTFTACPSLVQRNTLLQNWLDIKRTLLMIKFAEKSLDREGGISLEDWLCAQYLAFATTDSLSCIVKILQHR

T3: PEAK3^FL from insect cells, phosphorylated by Src (human, UniProt Q6ZS72 1-473, phosphotyrosine at 24 (by Src in vitro, MS/MS); phosphoserine at 69; biotin (EZ-Link NHS-PEG4-Biotin))
T3 chain: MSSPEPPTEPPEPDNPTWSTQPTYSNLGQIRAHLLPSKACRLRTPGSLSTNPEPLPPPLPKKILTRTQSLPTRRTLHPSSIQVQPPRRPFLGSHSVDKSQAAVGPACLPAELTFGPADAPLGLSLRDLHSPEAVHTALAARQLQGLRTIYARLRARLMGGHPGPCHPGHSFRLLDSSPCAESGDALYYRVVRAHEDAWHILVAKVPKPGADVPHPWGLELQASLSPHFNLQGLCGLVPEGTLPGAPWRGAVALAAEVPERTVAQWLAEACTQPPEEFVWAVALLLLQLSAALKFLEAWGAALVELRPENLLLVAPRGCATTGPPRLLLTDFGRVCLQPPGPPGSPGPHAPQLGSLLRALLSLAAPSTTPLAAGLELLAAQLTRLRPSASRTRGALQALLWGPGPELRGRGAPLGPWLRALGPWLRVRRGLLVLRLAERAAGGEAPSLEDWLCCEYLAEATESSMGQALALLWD

T4: PEAK2^IDR1 (human PEAK2 residues 802–1406) (human, UniProt Q86YV5 802-1406, phosphorylated at the tandem site 14-3-3 motif (RAA(pS)SP) as purified from insect cells; biotin (EZ-Link NHS-PEG4-Biotin) where immobilised for SPR)
T4 chain: T1 chain

T5: full length PEAK3 from insect cells (PEAK3^FL, S69 phosphorylated) (human, UniProt Q6ZS72 1-473, phosphoserine at 69; biotin (EZ-Link NHS-PEG4-Biotin) where immobilised for SPR)
T5 chain: T3 chain

B1: full length CrkII, monomer (CrkII^FL monomer) (natural protein)
chain: MAGNFDSEERSSWYWGRLSRQEAVALLQGQRHGVFLVRDSSTSPGDYVLSVSENSRVSHYIINSSGPRPPVPPSPAQPPPGVSPSRLRIGDQEFDSLPALLEFYKIHYLDTTTLIEPVSRSRQGSGVILRQEEAEYVRALFDFNGNDEEDLPFKKGDILRIRDKPEEQWWNAEDSEGKRGMIPVPYVEKYRPASASVSALIGGNQEGSHPQPLGGPEPGPYAQPSVNTPLPNLQNGPIYARVIQKRVPNAYDKTALALEVGELVKVTKINVSGQWEGECNGKRGHFPFTHVRLLDQQNPDEDFS
modifications: biotin (EZ-Link NHS-PEG4-Biotin) where immobilised for SPR
B2: CrkII SH2 domain (CrkII^SH2, residues 6–120) (domain or fragment)
chain: DSEERSSWYWGRLSRQEAVALLQGQRHGVFLVRDSSTSPGDYVLSVSENSRVSHYIINSSGPRPPVPPSPAQPPPGVSPSRLRIGDQEFDSLPALLEFYKIHYLDTTTLIEPVSR
modifications: biotin (EZ-Link NHS-PEG4-Biotin) where immobilised for SPR
B3: CrkII NSH3 domain (CrkII^NSH3, residues 134–191) (domain or fragment)
chain: AEYVRALFDFNGNDEEDLPFKKGDILRIRDKPEEQWWNAEDSEGKRGMIPVPYVEKYR
B4: 14-3-3γ (natural protein)
chain: MVDREQLVQKARLAEQAERYDDMAAAMKNVTELNEPLSNEERNLLSVAYKNVVGARRSSWRVISSIEQKTSADGNEKKIEMVRAYREKIEKELEAVCQDVLSLLDNYLIKNCSETQYESKVFYLKMKGDYYRYLAEVATGEKRATVVESSEKAYSEAHEISKEHMQPTHPIRLGLALNYSVFYYEIQNAPEQACHLAKTAFDDAIAELDTLNEDSYKDSTLIMQLLRDNLTLWTSDQQDDDGGEGNN
B5: full length CrkII, dimer (CrkII^FL dimer) (natural protein)
chain: B1 chain
modifications: biotin (EZ-Link NHS-PEG4-Biotin) where immobilised for SPR

Columns and labels:
Experiment in all cases: SPR
[1] = molecular target: T1, PEAK2^IDR1 phosphorylated by Src
[2] = molecular target: T2, PEAK1^IDR1 phosphorylated by Src
[3] = molecular target: T3, PEAK3^FL from insect cells, …
[4] = molecular target: T4, PEAK2^IDR1 (human PEAK2 residues …)
[5] = molecular target: T5, full length PEAK3 from insect cells …

Binder | Kd [1] | Kd [2] | Kd [3] | Kd [4] | Kd [5]
B1 | 2.1 µM | – | – | – | –
B2 | 20.7 µM | 12.5 µM | 48.5 µM | – | –
B3 | – | – | 6.8 µM | 4.8 µM | 3.9 µM
B4 | – | – | < 1 µM | – | –
B5 | 1.4 µM | – | – | – | –
